Measured values published in US20120231006A1 (Amgen, published 2012).

Legend:
rat Orai1 = biological target: T1, rat Orai1 (rat, UniProt Q5M848 1-304); experiment: FACS, 293EBNA transfectants with STIM1, thapsigargin
T1 construct: co-expressed with rat STIM1; also called rOrai1
Method: (§1) FIG. 13A-B illustrates the results of FACS analysis showing binding to human Orai1 expressed on the surface of HEK-293-EBNA cells that were treated with 2 μM Thapsigargin. HEK-293-EBNA cells were transiently transfected with human Orai1 and human STIM1, mouse Orai1 and mouse STIM1, rat Orai1 and rat STIM1 and control empty vector. Transfected cells were stained first with recombinant monoclonal antibodies then counter-stained with a secondary phycoerythrin-labeled Gt anti-Hu IgG F(ab′)₂ or Gt anti-Mu IgG F(ab′)₂ antibody fragment, as appropriate, and visualized using FACS.
(§2) FACS binding analysis. Transfected 293EBNA cells transiently expressed hOrai1, human Orai2, or human Orai3 (results of binding comparison in FIG. 11A-B), or hOrai1(S218G) (results of binding comparison in FIG. 12A-B); or hOrai1 and hSTIM1; mOrai1 and mouse STIM1; or rat Orai1 and rat STIM1 (results of binding comparison in FIG. 13). The transfected cells were harvested at 48 hours post-transfection. Cells transfected with pcDNA3.1 were used as negative controls. Cells were washed once with ice-cold 1×PBS, resuspended in ice-cold FACS buffer (1×D-PBS+2% goat serum), and 2×10⁵ cells in […] were stained per antibody combination. All antibody incubation steps were performed on ice for 1 hour. […] Next, the unlabelled antibody was detected using goat F(ab′)₂ anti-mouse or anti-human IgG-phycoerythrin (IgG-PE), followed by a wash with 200 μL of ice-cold FACS buffer before flow cytometry analysis. Unstained cells and cells stained with detecting antibodies were used as negative controls. The values of relative level of fluorescence were calculated using FCS Express (De Novo Software) and mean values were calculated using log-transformed data (geometric mean). Purified mAbs were assessed by FACS assay for their ability to specifically bind human Orai1, Orai2 and Orai3 proteins expressed on HEK-293 cells.

mouse Orai1 = biological target: T2, mouse Orai1 (mouse, UniProt Q8BWG9 1-304); experiment: as above
T2 construct: co-expressed with mouse STIM1; also called mOrai1
T2 sequence (Q8BWG9 whole entry): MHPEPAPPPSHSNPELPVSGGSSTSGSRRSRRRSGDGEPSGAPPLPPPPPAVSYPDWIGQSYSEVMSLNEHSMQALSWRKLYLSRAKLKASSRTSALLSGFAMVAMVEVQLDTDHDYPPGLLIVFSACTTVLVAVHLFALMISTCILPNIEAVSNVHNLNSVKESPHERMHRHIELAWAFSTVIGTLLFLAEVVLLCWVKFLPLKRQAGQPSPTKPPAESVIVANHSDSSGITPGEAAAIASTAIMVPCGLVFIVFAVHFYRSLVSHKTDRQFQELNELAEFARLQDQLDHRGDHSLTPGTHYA
Method: as §1, §2

[1] = biological target: T3, hOrai1-mOrai1 ECL2 (…) protein (human/mouse chimera, UniProt Q96D31 1-301); experiment: FACS, 293EBNA, RFI-POC grade; parameters: concentration or dose not given beside the values
T3 construct: also called Ch
T3 sequence (Q96D31 other isoform, or with tags, fused parts or gaps): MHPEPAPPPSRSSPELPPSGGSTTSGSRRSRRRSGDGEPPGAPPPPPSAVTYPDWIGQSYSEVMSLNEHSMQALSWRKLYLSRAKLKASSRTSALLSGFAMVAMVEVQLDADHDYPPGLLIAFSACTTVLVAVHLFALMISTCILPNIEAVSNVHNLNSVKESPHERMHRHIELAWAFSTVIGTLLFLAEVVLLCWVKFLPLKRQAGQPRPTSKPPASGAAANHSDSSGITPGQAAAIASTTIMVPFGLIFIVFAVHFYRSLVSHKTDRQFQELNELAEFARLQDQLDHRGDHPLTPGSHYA

[2] = biological target: T4, mOrai1-hOrai1 ECL2 chimeric protein (human/mouse chimera, UniProt Q8BWG9 1-304 (mouse entry)); experiment: FACS, 293EBNA, RFI-POC grade; parameters: concentration or dose not given beside the values
T4 construct: mouse Orai1 with human ECL2; also called Ch
T4 sequence (Q8BWG9 other isoform, or with tags, fused parts or gaps mutant): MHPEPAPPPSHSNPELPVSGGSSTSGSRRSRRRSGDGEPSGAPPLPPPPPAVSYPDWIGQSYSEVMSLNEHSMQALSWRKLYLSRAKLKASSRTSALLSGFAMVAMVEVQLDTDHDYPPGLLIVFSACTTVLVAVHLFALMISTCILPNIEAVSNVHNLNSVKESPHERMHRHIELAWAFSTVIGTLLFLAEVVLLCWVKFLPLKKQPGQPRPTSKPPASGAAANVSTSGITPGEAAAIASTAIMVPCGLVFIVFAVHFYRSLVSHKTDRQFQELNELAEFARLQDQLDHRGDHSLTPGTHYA

[3] = biological target: T5, hOrai1-mOrai1 ECL2 (…) protein (human/mouse chimera, UniProt Q96D31 1-301); experiment: FACS, 293EBNA, RFI-POC grade; parameters: concentration or dose not given beside the values; remark: listed apart in the source
T5 construct: also called Ch
T5 sequence (Q96D31 other isoform, or with tags, fused parts or gaps): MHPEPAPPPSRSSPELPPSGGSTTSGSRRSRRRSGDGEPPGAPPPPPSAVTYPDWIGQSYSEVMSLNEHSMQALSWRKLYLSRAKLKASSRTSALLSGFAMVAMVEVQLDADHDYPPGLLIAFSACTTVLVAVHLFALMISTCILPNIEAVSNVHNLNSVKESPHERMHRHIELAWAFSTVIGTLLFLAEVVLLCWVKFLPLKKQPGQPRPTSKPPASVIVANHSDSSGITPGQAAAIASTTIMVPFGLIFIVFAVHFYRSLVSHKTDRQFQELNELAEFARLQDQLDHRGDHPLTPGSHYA

[4] = biological target: T6, hOrai1-mOrai1 ECL2 chimeric protein (human/mouse chimera, UniProt Q96D31 1-301); experiment: FACS, 293EBNA; parameters: concentration or dose not given beside the values
T6 construct: human Orai1 with mouse ECL2; also called Ch
T6 sequence (Q96D31 other isoform, or with tags, fused parts or gaps mutant): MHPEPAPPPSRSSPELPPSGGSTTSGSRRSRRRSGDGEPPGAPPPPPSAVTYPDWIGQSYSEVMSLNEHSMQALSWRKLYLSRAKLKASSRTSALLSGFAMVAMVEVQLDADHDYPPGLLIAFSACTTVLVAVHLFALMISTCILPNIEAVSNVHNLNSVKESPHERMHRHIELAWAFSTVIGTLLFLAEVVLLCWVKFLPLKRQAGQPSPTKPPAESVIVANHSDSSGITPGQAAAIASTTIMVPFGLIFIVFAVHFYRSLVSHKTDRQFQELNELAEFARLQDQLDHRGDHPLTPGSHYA
From the text: (§3) FIG. 17A-D illustrates the results of FACS analysis showing binding to the indicated mOrai1-hOrai1 ECL2 chimeric mutants expressed on the surface of HEK-293-EBNA cells. Transfected cells were stained first with recombinant monoclonal antibodies then counter-stained with a secondary phycoerythrin-labeled goat (“Gt”) anti-human (“Hu”) IgG F(ab′)₂ antibody fragment and visualized using FACS.
(§4) Representative results of FACS analysis of binding to the mutant hOrai1-mOrai1 ECL2 chimera described above by exemplary anti-hOrai1 antibodies of the present invention are shown in FIG. 17A-D, Table 10A and Table 10B below. Table 10A (Campaign 1) and Table 10B (Campaign 2) show the gain in binding ability of exemplary monoclonal antibodies to hOrai 1-mOrai 1 ECL2 chimera mutants as determined by FACS.

[5] = biological target: T7, hOrai1-mOrai1 ECL2 (GAA) protein (human/mouse chimera, UniProt Q96D31 1-301); experiment: FACS, 293EBNA; parameters: concentration or dose not given beside the values
T7 construct: also called Ch
T7 sequence (Q96D31 other isoform, or with tags, fused parts or gaps): as the sequence (Q96D31 other isoform, or with tags, fused parts or gaps mutant) above, with V219G, I220A, V221A counted along it
From the text: as §3, §4

[6] = biological target: T8, hOrai1-mOrai1 ECL2 (…) protein (human/mouse chimera, UniProt Q96D31 1-301); experiment: FACS, 293EBNA; parameters: concentration or dose not given beside the values
T8 construct: also called Ch
From the text: as §3, §4
T8 sequence (Q96D31 other isoform, or with tags, fused parts or gaps): as the sequence (Q96D31 other isoform, or with tags, fused parts or gaps mutant) above, with A216P, E217A, V219G, I220A, V221A, H224V, D226T counted along it

[7] = biological target: T9, hOrai1-mOrai1 ECL2 (AANVST) protein (human/mouse chimera, UniProt Q96D31 1-301); experiment: FACS, 293EBNA; parameters: concentration or dose not given beside the values
T9 construct: also called Ch
T9 sequence (Q96D31 other isoform, or with tags, fused parts or gaps): as the sequence (Q96D31 other isoform, or with tags, fused parts or gaps mutant) above, with V221A, H224V, D226T counted along it
From the text: as §3, §4

[8] = biological target: T10, hOrai1-mOrai1 ECL2 (VST) protein (human/mouse chimera, UniProt Q96D31 1-301); experiment: FACS, 293EBNA; parameters: concentration or dose not given beside the values
T10 construct: also called Ch
T10 sequence (Q96D31 other isoform, or with tags, fused parts or gaps): as the sequence (Q96D31 other isoform, or with tags, fused parts or gaps mutant) above, with H224V, D226T counted along it
From the text: as §3, §4

[9] = biological target: T11, hOrai1-mOrai1 ECL2 (PASGAA) protein (human/mouse chimera, UniProt Q96D31 1-301); experiment: FACS, 293EBNA; parameters: concentration or dose not given beside the values
T11 construct: also called Ch
T11 sequence (Q96D31 other isoform, or with tags, fused parts or gaps): as the sequence (Q96D31 other isoform, or with tags, fused parts or gaps mutant) above, with A216P, E217A, V219G, I220A, V221A counted along it
From the text: as §3, §4

[10] = biological target: T6, hOrai1-mOrai1 ECL2 chimeric protein; experiment: FACS, 293EBNA transfectants
From the text: FIG. 15A-B illustrates the results of FACS analysis showing binding to human Orai1 extracellular loop 2-mouse Orai1 mutant expressed on the surface of HEK-293-EBNA cells. HEK-293-EBNA cells were transiently transfected with mouse Orai1 mutant where human Orai1 extracellular loop 2 replaced the mouse Orai1 extracellular loop 2 and human Orai1 mutant where mouse Orai1 extracellular loop 2 replaced human extracellular loop 2. Transfected cells were stained first with recombinant monoclonal antibodies then counter-stained with a secondary phycoerythrin-labeled goat (“Gt”) anti-human (“Hu”) IgG F(ab′)₂ antibody fragment and visualized using FACS.
FACS binding analysis. Transfected 293EBNA cells transiently expressed hOrai1-mOrai1 ECL2 or mOrai1-hOrai1 ECL2 chimera. The transfected cells were harvested at 48 hours post-transfection. Cells transfected with pcDNA3.1 were used as negative controls. Cells were washed once with ice-cold 1×PBS, resuspended in ice-cold FACS buffer (1×D-PBS+2% goat serum), and 2×10⁵ cells in 100 μL were stained per antibody combination. All antibody incubation steps were performed on ice for 1 hour. […] Next, the unlabelled antibody was detected using goat F(ab′)₂ anti-mouse or anti-human IgG-phycoerythrin (IgG-PE), followed by a wash with 200 μL of ice-cold FACS buffer before flow cytometry analysis. Unstained cells and cells stained with detecting antibodies were used as negative controls. The values of relative level of fluorescence were calculated using FCS Express (De Novo Software) and mean values were calculated using log-transformed data (geometric mean). The results of the FACS analysis are shown in FIG. 15A-B, which supports the conclusion that the hOrai1 ECL2 domain is the region of hOrai1 where antibodies of the present invention bind.

T1 sequence (Q5M848 whole entry): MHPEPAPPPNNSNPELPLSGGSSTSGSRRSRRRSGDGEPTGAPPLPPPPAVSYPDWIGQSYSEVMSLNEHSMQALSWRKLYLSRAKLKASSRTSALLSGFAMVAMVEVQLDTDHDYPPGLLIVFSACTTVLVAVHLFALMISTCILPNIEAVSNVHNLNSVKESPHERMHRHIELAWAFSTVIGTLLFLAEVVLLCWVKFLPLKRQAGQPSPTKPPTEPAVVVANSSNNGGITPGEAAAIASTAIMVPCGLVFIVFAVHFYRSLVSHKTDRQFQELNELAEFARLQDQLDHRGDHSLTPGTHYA

B1: mAb 5B5.2 (antibody, human IgG2, lambda, V domains shown)
VH: QVQLVQSGAEVKKPGASVKVSCKASGYTFTDYYINWVRQAPGQGLEWMGWINPNSGGTDYAQKFQGRVTMTRDTSIRTAYMELNRLTSDDTAVYYCAREYGGYEDWFDPWGQGTLVTVSS
VL: QSVLTQPPSVSGAPGQRVTISCTGSNSNIGAGFDVHWYQQLPGTVPKLLIYGNNNRPSGVPDRFSGSKSGTSASLAITGLQAEDEADYYCQSYDSRLTVFGGGTKLTVLG
notes: fully human IgG2 lambda, Campaign 2; same chains as 5B5.1
Question: Which results are given for B1?
Answer: binding result (rat Orai1): no binding (tested: 1 µg); binding result (mouse Orai1): no binding (tested: 1 µg); percent of control (POC) of FACS Geo Mean [1]: 40 to 100%; percent of control (POC) of FACS Geo Mean [2]: 40 to 100%; percent of control (POC) of FACS Geo Mean [3]: 40 to 100%; percent of control (POC) of FACS Geo Mean [4]: < 1%; percent of control (POC) of FACS Geo Mean [5]: < 1%; percent of control (POC) of FACS Geo Mean [6]: < 1%; percent of control (POC) of FACS Geo Mean [7]: < 1%; percent of control (POC) of FACS Geo Mean [8]: < 1%; percent of control (POC) of FACS Geo Mean [9]: < 1%; binding result [10]: no binding (tested: 1 µg)
